The record followed here is the DeepSol protein solubility set.

The data set can be described thus: soluble on expression in E. coli; label from the status in PepcDB or PDB records.
In the case of “MADSNDLMSEFQKLQQETSKIQSHLTKDFLSSSAKLSENRVLQATQELCGKLTEKQKVQDDTINLLLSALGQIQENQNKILNQFASMQSQLDIVKRRQDAYERDLIQQKPSVPEQKVGESSKKSPRSAESALKYVETCTKVVDLCIAVSMPGRLFSIGANKMESVEQLKMKIECQTGIPRTKFWLRLHGKPLYDDKKLADYKWDTSVELLVRAS”, the “soluble on expression in E. coli” value is recorded as “not soluble”.
In the case of “GMMTHYSDNTLKVAHQGFEFFTQGLATGEWQKFLDMLTEDFTFWFPMGEFHGLNVGKERAKEFFTYVSESFHTGIQISSLDRVTSNETTVVFEFRDEGLFLGKPYKNRVAVSFDVRGDKICSYREYFGSDGKSN”, the “soluble on expression in E. coli” value is on record as “soluble”.
Regarding “MSLKYPGFLYLNDIHIDLSYNPKSNKDWCHSQTNNLLESWEFGQYNCDPPPKLYDSLVESLKTNVPSVDFILLGGDLPSHDLGGNYTFLKEHFRLITDPLEKLYPNKKIFITLGNNDFQENYGSFKTDLKDFENAHEVFGKWMNEEQSKTFKKGGYYYEDMPELKLRLLLLNTVMYTNTKSRVFNESLKDPYDQFAWIRQTYKEGVDKGYKVGVALHVPPGIVYYKGIPGFPSMYLEEFGKVFEECDFSFTISGHSHIDTLNPLYKANVEEDNIQYSLSAVSVSPSHYNNPGYRYFEIKDGVLQDYTQFYADIMMNPDSPKWEVEYKFRDAYKVKDLSKKSLNDATRYIRSKGSVIWSYRGYIYSQAEKYNPFFYCALRALTKEDVFKCSLDLNVNLSSEGHHHHHH”, the “soluble on expression in E. coli” value is given as “soluble”.
The entry for “MVGAYSYSEGLETLVENGTITSQSTLQQWLEAELSYGAIRLEAAVMVRAYQAATMDDMETLCYWNLWLSAARETQELRNSSWQMGRSLMQLLGKIQPEILPLANAVGNPCNYAIAFGIASAHWQINIQAALLAYLHSWATNLITAGVKLIPLGQTAGQELLLQLQPLISHATVEIMSLKDDELSCCSWGLSLASMQHETQYTRLFRSLEHHHHHH” is “not soluble”; for “KEMKYVVDTSVVISGRVTEMLESGEIKGTIIVPEAVMAELEAQANFGKMTGFQGLSEIEKLTKLAKDKGFEVIFAGERPKLEHIRLAKGGEIDNLIREVAAEFDAVLVTSDRVQHLVARAKGIETIYVRPRVVRPENTRIMSFFTP” it is “not soluble”; for “MGSDKIHHHHHHMSYRLNIENLREFMSETSDSCEHLVFPQKRGIYRAQKEWIASGITLFKCTLRAEDEVVIEQKESAFFGGAFIHVVLEGGVSFETSQPKGSFEYRRGYTTAMEALHPSGITRVARGVSVHSIGIHIHEDFLRSREIEWKKIAKEPRLLPSNPKVEWIAKSLYQGRGGAQSDADRLRVESQILEILSCELQREETRGGMERVKLSGYDLEALHKARVILEQNLKNPPSLIELSRAIHLNEFKLKFGFKRLFGVAPYEMLFLFRMQRARGLLEEGIFSVGEVAKEVGYAQQSSFSAAFFRHFGVLPKEVAKSWKD” it is “not soluble”.
The result for “MSTTGRIHSFESCGTVDGPGIRFIVFLQGCLMRCKYCHNRDTWDTHDGKEVTVEEIIAEAKSYRHFMNASGGGITCSGGEAMLQPEFVRDFFRAAHAEGIHTCLDTNGYIRKHTEVIDEVLDATDLVMLDIKHMKDEIHQDFIGVSNRRTLDFARYLHKIGQKTWIRYVVVPGYTDDPEAAHMLGEFIKDMDNIEKVELLPYHKLGAHKWEALGLEYPLEGVNPPSKETMDEIQSILSQYHSNVKYLEHHHHHH” reads “not soluble”; that for “MGHHHHHHSHMQLVRDLLEVTSGLISDDIINMRNDLYQTPLHLAVITKQEDVVEDLLRAGADLSLLDRLGNSVLHLAAKEGHDKVLSILLKHKKAALLLDHPNGDGLNAIHLAMMSNSLPCLLLLVAAGADVNAQEQKSGRTALHLAVEHDNISLAGCLLLEGDAHVDSTTYDGTTPLHIAAGRGSTRLAALLKAAGADPLVENFEPLYDL”, “not soluble”.
Regarding “MSLAKSVFYYHRCQFDVKDKYGDLKQRITELYHQHKGRYGYRRVTAALKQLDCHHNHKLIAKLMHDMKLSAKIRRQKYRSYKGQQGKIAKNYLKRQFHADKPNKRWLTDITEFKVGDDKLYLSPILDCYNNEIVSYTLSKRPTYDLVGKMLEDALAKTKACRDNKLMLHSDQGWHYQMRLFGQVLKQHGIKQSMSRKGNCLDNALMEGFFGTLKCETIYIEKPNSIEGLEKQIHEYIHYYNHERIQLKLKGLSPVKYRTQSLIEGHHHHHH”, the “soluble on expression in E. coli” value was “not soluble”.
The entry for “MQNIPPQVQAMLGQLDTYQQQLQLVIQQKQKVQADLNEAKKALEEIETLPDDAQIYKTVGTLIVKTTKEKAVQELKEKIETLEVRLNALNRQEQKINEKVKELTQKIQAALRPPTAG” is “soluble”.
